Literature values as cited in paper PMC2883863.

Molecular target: Cys36 (UniProt position 73, FWTPWCPFCNA)
Settings: not stated (quoted literature value for Mtb DsbE)

Disulfide bond forming protein DsbE (Mtb DsbE, Rv2878c, MPT53) (Mycobacterium tuberculosis)
pKa: 5.35 ± 0.2
